B1: Hubei tombus-like virus 9 (nucleic acid)
DNA: GGACCATCCAGGCAGGTGTAGGCTAGTACCCTCACCTGACCTGTCGCGATGTTTGGCTTTGTGAGGCTTGTGGGAGGATCCCTTGGCCCATGCATTGCTGCTGTCATCGTGAAAAATGTTGTATGCTCGCACCTGGCGTGGAGGAAACGGCATTTGACGGATGCTAAGGAGGATTTGAAGGTCCTCAACTCCCATGCCTTATTACAAGTCCCCTTTCCTTCAAGCTTCGAGCCCACGTCTGTGACGAGCAGAGGTGAGGTTGGAGTCAAGAGGAGTCCTATTCAAGCTGTTCGCAGCAAGAACCATAAAACTTTCATTGCTCAATGGGCAAGAGCGGCTAAGGCTCGGTTCTCGTTTGCACGACAGTGTGAGCGGAGCCCTGTAAATGTCGCGGCCCTTCATCGGTGGTTTGCATCGGAGTTTAAGAAAATTGGCATGAACTTGCTCCAGGTTTCGTACGTGATCGATGAGGTTGTTGAACTTAGTTTGGAACCAACGTATGAGCGTATGGTGTCCGAAACTAAGAAGCAATTCCGTCATCGGGCACGTATGGAATACTACAACGAGAAAAAATGCCTTGAAAAGATCCACTAGGAACGC
modifications: source: /note="Description of Unknown: Hubei tombus-like virus 9 sequence"
B2: Hubei sobemo-like virus 3 (nucleic acid)
DNA: GAGATGTTTGCGTGGGCCGTTGCGCTGCGGGCGGCCCACCTCCCTACGGGGACCGTGAGACACCGCTGGGGAAGGCCCCCACCCCCGGCCAAGGGGATCCTGCCGAGAGGCAGGAGAAAGAGGCCCAGCCCTCTGGGGCGCCTTTAGGGGTGCCTGGGAGGGAAGTACCCGAGCCGGGCGGCCGGTCGGGTGCGGCTGTGCAGTTCGAGGCTAACCGTAAGGAAGGCCTGAGCTGCCTCGGCTTGTCGGAAAGGAAGACGAAGGCACTTATCAAGGCTTTCAGGAAGCAGGAGCGCAATTACAGCGCGCGCCGTGCGGCCTGGATTAACCGCATTTGGCCG
modifications: source: /note="Description of Unknown: Hubei sobemo-like virus 3 sequence"
B3: Farmington virus (nucleic acid)
chain: ACGACGCATAAGCAGAGAAACATAAGAGACTATGTTCATAGTCACCCTGTATTCATTATTGACTTTTATGACCTATTATTAGACCCTTCACGGGTAAATCCTTCTCCTTGCAGTTCTCGCCAAGTACCTCCAAAGTCAGAACG
modifications: lipid formulation; source: /note="Description of Unknown: Farmington virus sequence"
B4: Grapevine associated narnavirus-1 (nucleic acid, listed as Narnavirus sp.)
chain: GCCCGGGGGGTGCAGTCCTGTGAAAGGGTCTGCACCATACTATATATGTATATGATTACATCCCAAAAGGCGACTTCGTTCAGGTTTTAAATCTGACGTAGGTCCAGTAAATAAGCATGTCAAAACATGTAAGTTTATCCTGTAATCTACTCTCATAAGATGAGATAAGATGATATTGCAGTTCCCATGTAAATAAATCCATTATGAATTCATTCATATAAGGTAGAAGTGGTAACTATGGTTGAAACATTAATATAAAACGGTCATTTTGCATGAACGTCATTAAGGAACTGGCATACCAATGTCTATTTAGTGACTATGATATTTAGAGTATCCCTTATATTAATTAACAATTATTCCTTTTAGCATATCATCCGACAACAAATTTTAAAAGAAGAAATATTACTCATTAAAA
modifications: lipid formulation
B5: Human rhinovirus 1 (nucleic acid, listed as Rhinovirus sp.)
DNA: TTAAAACTGGGTGTGGGTTGTTCCCACCCACACCACCCAATGGGTGTTGTACTCTGTTATTCCGGTAACTTTGTACGCCAGTTTTTCCCTCCCCTCCCCATCCTTTTACGTAACTTAGAAGTTTTAAATACAAGACCAATAGTAGGCAACTCTCCAGGTTGTCTAAGGTCAAGCACTTCTGTTTCCCCGGTTGATGTTGATATGCTCCAACAGGGCAAAAACAACAGATACCGTTATCCGCAAAGTGCCTACACAGAGCTTAGTAGGATTCTGAAAGATCTTTGGTTGGTCGTTCAGCTGCATACCCAGCAGTAGACCTTGCAGATGAGGCTGGACATTCCCCACTGGTAACAGTGGTCCAGCCTGCGTGGCTGCCTGCGCACCTCTCATGAGGTGTGAAGCCAAAGATCGGACAGGGTGTGAAGAGCCGCGTGTGCTCACTTTGAGTCCTCCGGCCCCTGAATGCGGCTAACCTTAAACCTGCAGCCATGGCTCATAAGCCAATGAGTTTATGGTCGTAACGAGTAATTGCGGGATGGGACCGACTACTTTGGGTGTCCGTGTTTCACTTTTTCCTTTATTAATTGCTTATGGTGACAATATATATATTGATATATATTGGCATC
B6: Hubei tombus-like virus 32 (nucleic acid)
DNA: TTCGGGTTTACCCGCGTAAGCGGCCACACTGACTGGTTGTCGGTGTTGAATTTGTATACCAGATGAGGAGACGTTACCACCGTCTCGGCAGTGCTACGTCTGGGAAAGGACTGTGATAGTGGACAGTCCTACCGTCTTTAGATACATTGCGTTGTGTATAGCCCGGGAGGGATTAACTAATAGCAACGCAATGCACACGGCGGTTCGGATTTGCTTGACTGATGGAAAGACATCTAAGTTCTAATTGAACC
modifications: source: /note="Description of Unknown: Hubei tombus-like virus 32 sequence"
B7: Goat torovirus (nucleic acid, listed as Torovirus sp.)
chain: GTACTTACAAGCGGGTTAAACCGCCCTCCGGAACGGTTACAACCCCCTCCCGAACGTGCGCTTGACGTGACTGGTTCTCAGTCTGGCTTTCTGAGAAATACTCCAGGGTTGTATCCCACCATCTTGACCTCTGGTCATTTTGGTAACACCATAACCAAACAAACTCTACACACCTAACCCACCTCCAGCTTGCTGCAGGCCTTTTGGACTAAACGGGTTTAGGTGTTTTGTGACCAACTCGTCTACCCACCTCCAGTTTTACTGCAGGCCTTTTTGGACTAAACGGCTTTAGACTTTTGTGGTTAGTTTTTAACTACCCACTGTTTAGCCGCCAACCTGATTTTCATTGTTGTAAAATTTTGTGTTTATACACTATTTTCATACGGTTGGCAGTTTGTTTGGTTGTTTGCACAGTTTTTGTTGATACCAATTTTTACTGTGCTTTTAGTGTATTCTGCTAAGGCTGTATTTTACATACTTAGTTTGGTTGAAGCAATTTTTACAACATTTATATTGTTTTTGATTTCTAAGGTAAAGAGTCTTAGGAAACACCATAGACGCCATTCTTGTGGTGTCTAGTTCCAACTAATCTGGCAAACAAGTACCAAGTCATTGACTCACTTTGGAGTGAGACTTACGAGTACCAATTTGCCTATTTCGGACATCCATATAAAG
modifications: lipid formulation
B8: Feline infectious peritonitis virus (nucleic acid)
chain: ACTTTTAAAGTAAAGTGAGTGTAGCGTGGCTATAACTCTTCTTTTACTTTAACTAGCCTTGTGCTAGATTTGTCTTCGGACACCAACTCGAACTAAACGAAATATTTGTCTCTCTATGAAACCATAGAAGACAAGCGTTGATTATTTCACCAGTTTGGCAATCACTCCTAGGAACGGGGTTGAGAGAACGGCGCACCAGGGTTCCGTCCCTGTTTGGTAAGTCGTCTAGTATTAGCTGCGGCGGTTCCGCCCGTCGTAGTTGGGTAGACCGGGTTCCGTCCTGTGATCTCCCTCGCCGGCCGCCAGGAGA
modifications: lipid formulation; source: /note="Description of Unknown: Feline infectious peritonitis virus sequence"
B9: Human TMEV-like cardiovirus (nucleic acid, listed as Cardiovirus sp.)
DNA: TCCGACGTGGTTGGAATTAACATCTTTTCCGACGAAAGTGCTATTATGCCTCCCCGATTGTGTGATGCTTTCTGCCCTGCTGGGCGGAGCGTCCTCGGGTTGAGAAACCTTGAATCTTTTCCTTTGGAGCCTTGGCTCCCCCGGTCTAAGCCGCTTGGAATATGACAGGGTTATTTTCCAAACTCTTTATTTCTACTTTCATGGGTTCTATCCATGAAAAGGGTATGTGTTGCCCCTTCCTTCTTTGGAGAATCTGCGCGGCGGTCTTTCCGTCTCTCAACAGGCGTGGATGCAACATGCCGGAAACGGTGAAGAAAACAGTTTTCTGTGGAAATTTAGAGTGGACATCGAAACAGCTGTAGCGACCTCACAGTAGCAGCGGATTCCCCTCTTGGCGACAAGAGCCTCTGCGGCCAAAAGCCCCGTGGATAAGATCCACTGCTGTGAGCGGTGCAACCCCAGCACCCTGGTTCGATGGCCATTCTCTATGGAACCAGAAAATGGTTTTCTCAAGCCCTCCGGTAGAGAAGCCAAGAATGTCCTGAAGGTACCCCGCGCGCGGGATCTGATCAGGAGACCAATTGGCAGTGCTTTACGCTGCCACTTTGGTTTAAAAACTGTCACAGCTTCTCCAAACCAAGTGGTCTTGGTTTTCCAATTTTGTTGACTGACAAT
B10: Hubei zhaovirus-like virus 1 (nucleic acid)
DNA: GTGCAGGATGGCCTTTCCCATCTTAAGTGGTTTGTAGGATTTCGTGGGTCCATACCCCCCGATTTCTTGGTACGTATTCCATGCACGGAGAATACGACCAAAACTCTTATTTCAAAAAATATTATTTTTTACTCTTGTGGGCTGAGTGCGACCCACCAGTTCCAGCTTAGCAACCTGGAAGTTGTTGGAGATTTATGGAACCAAATTACACATGCGTGGAGTGCCGCCACTCCGTATCTGTTCACTCATTACGCGATTAAGTTCTGCGACGAGACGAGCGAA
modifications: source: /note="Description of Unknown: Hubei zhaovirus-like virus 1 sequence"

Tested on: HEK293 cells
Type: cell-based, human
Settings: circular RNA encoding Gluc with the listed IRES (UTR truncated to 675 nt) transfected into HEK293 cells; supernatant after 24 hours

Molecule | Expression (luminescence from secreted Gluc protein)
B1 | 9.28E+04
B2 | 1.17E+05
B3 | 1.22E+05
B4 | 1.30E+05
B5 | 7.40E+07
B6 | 9.23E+04
B7 | 1.19E+05
B8 | 1.35E+05
B9 | 4.48E+07
B10 | 1.03E+05

— US20240245805A1 (Orna Therapeutics, Inc., priority 2020, published 2024)
